In patent US8895245 one finds K (K1/2, concentration of peptide resulting in half-maximal velocity) and K (Km for nucleosome) data, which are given here for 4 substances.

The subject of data set [1] is Biotinylated histone H3:21-44 peptide containing dimethylated K27.
In data set [2] the test system is Biotinylated histone H3:21-44 peptide containing monomethylated K27.
Data set [3] relates to Biotinylated histone H3:21-44 peptide containing unmethylated K27.
In data set [4] the test system is Chicken erythrocyte oligonucleosomes.

Regarding “Recombinant five-component PRC2 complex containing Y641F mutant EZH2”, the K (K1/2, concentration of peptide resulting in half-maximal velocity) in data set [1] was found to be 191 nM; in data set [2], 404 nM; in data set [3], 240 nM. This substance displayed a K (Km for nucleosome) in data set [4] of 0.176 µM.

Consider “Recombinant five-component PRC2 complex containing Y641H mutant EZH2”, for which the K (K1/2, concentration of peptide resulting in half-maximal velocity) in data set [1] amounted to 148 nM; in data set [2] it was 319 nM. The same substance gave a K (Km for nucleosome) in data set [4] of 0.14 µM.

Take “Recombinant five-component PRC2 complex containing Y641N mutant EZH2”: the K (K1/2, concentration of peptide resulting in half-maximal velocity) in data set [1] was 157 nM; in data set [2], 280 nM. Moreover, in data set [4], the K (Km for nucleosome) stood at 0.191 µM.

Regarding “Recombinant five-component PRC2 complex containing Y641S mutant EZH2”, the K (K1/2, concentration of peptide resulting in half-maximal velocity) in data set [1] came out at 136 nM; in data set [2] it was 249 nM. Also, in data set [4], the K (Km for nucleosome) stood at 0.137 µM.
